The test system of this data set is ischemic gastrocnemius muscle. The data set is described as follows: Hind limb ischemia mouse model (femoral artery ligation). It counts as in vivo. The source says:
To further verify the angio/arteriogenic activity of PDGF-CC in vivo, the effect of PDGF-CC in an established mouse model of hind limb ischemia is investigated (Luttun et al., Nat Med, 2002 1:1). PDGFR-α expression was quantified by RNAse protection analysis in the gastrocnemius muscle, which becomes highly ischemic after ligation of the femoral artery (Deindl et al., Circ Res, 2001 89:779-86; Couffinhal et al., American Journal of Pathology, 1998 152:1667-1679). Two days after femoral artery ligation, when a fraction of myocytes died due to ischemic necrosis, PDGFR-α transcript levels decreased to 76% of those found in normal muscles (FIG. 37a). […] Revascularization of the ischemic gastrocnemius muscle, which only occurred in those regions where regenerating muscle replaced the necrotic avascular muscle, was scored after continuous delivery, by osmotic minipump, of 4.5 μg PDGF-CC per day for one week after femoral artery ligation. […] PDGF-CC also enlarged the second-generation collateral side branches in the adductor muscle ([…] after saline versus […] after PDGF-CC; N=10; P=0.05). […] Thus, PDGF-CC stimulates revascularization in mouse models of both heart and limb ischemia.

Where [1] appears, read: 4.5 μg per day for one week after femoral artery ligation.

B1: PDGF-CC: recombinant human PDGF-CC core domain homodimer, residues 230-345 of full-length PDGF-C (SEQ ID NO:40), produced in baculovirus infected insect cells (protein)
chain: GRKSRVVDLNLLTEEVRLYSCTPRNFSVSIREELKRTDTIFWPGCLLVKRCGGNCACCLHNCNECQCVPSKVTKKYHEVLQLRPKTGVRGLHKSLTDVALEHHEECDCVCRGSTGG
modifications: homodimer; PDGF-C core domain
In the case of B1, the “hemorrhage, edema or fibrosis in treated limbs” value (4.5 μg per day for one week) is on record as “No signs of hemorrhage, edema or fibrosis”. Further, under setting [1], the “angiogenesis (capillary density)” value is reported as “increased”, the “arteriogenesis (density of SMA+ vessels)” value is reported as “enhanced”, the “extent of ischemic muscle necrosis” value is “reduced” and the skeletal muscle regeneration result is reported as “enhanced”. In addition, the “second-generation collateral side branches in the adductor muscle” value (after femoral artery ligation, N=10) is recorded as 920±100 μm^3.

The values above are taken from patent US20070172423A1, “Composition and method for modulating vasculogenesis for angiogenesis” (priority 1998, published 2007).
